Measurements reported in PMC4992063, “PARP3 is a sensor of nicked nucleosomes and monoribosylates histone H2BGlu2”.

Assays:
[1] = molecular target: Reconstituted nicked mononucleosome (recombinant histone octamer on 601.2 DNA with a site-specific nick) (Xenopus laevis | not stated); experiment: Ni-NTA nanogold labelling with negative-stain electron microscopy; full-length His-tagged cPARP3 incubated for 30 min with intact or nicked nucleosomes; Ni-NTA-conjugated 5 nm gold added at 1:10 (cPARP3-nucleosomes:Ni-gold); negative stain with 2% uranyl acetate
[2] = test system: His-tagged cPARP3 (Gallus gallus); experiment: negative-stain EM with Ni-NTA nanogold; details: NMR: 20 mM Tris-HCl pH 7.0, 125 mM NaCl, 1 mM TCEP, 10% D2O, 303 K, ~300 uM protein, EMSA and EM buffers not given in material
cPARP3 NTD-WGR (1-169) [3] = molecular target: T1, cPARP3 NTD-WGR (1-169) (Gallus gallus, UniProt E1BSI0 1-169); experiment: NMR (1H-15N HSQC titration); protein:DNA 5:1 to 1:2; NMR: 20 mM Tris-HCl pH 7.0, 125 mM NaCl, 1 mM TCEP, 10% D2O, 303 K, ~300 uM protein; EMSA and EM buffers not given in material; details: protein: recombinant; tags: N-terminal His tag (pNIC28-Bsa4) removed by TEV; 15N/13C labelled; nicked duplex: S42 (10 nt) and S43 (9 nt) annealed to S41
T1 sequence: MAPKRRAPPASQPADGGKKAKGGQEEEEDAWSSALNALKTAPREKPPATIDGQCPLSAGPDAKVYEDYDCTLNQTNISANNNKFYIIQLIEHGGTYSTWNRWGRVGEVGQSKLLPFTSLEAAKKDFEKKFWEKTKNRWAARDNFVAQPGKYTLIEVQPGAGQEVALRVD

cPARP3 NTD-WGR (1-169) [4] = molecular target: T1, cPARP3 NTD-WGR (1-169); experiment: NMR (1H-15N HSQC); NMR: 20 mM Tris-HCl pH 7.0, 125 mM NaCl, 1 mM TCEP, 10% D2O, 303 K, ~300 uM protein; EMSA and EM buffers not given in material; details: protein: recombinant; tags: N-terminal His tag (pNIC28-Bsa4) removed by TEV; 15N/13C labelled; 9 bp with 3' overhang 10 nt on S41

Full-length His-tagged chicken PARP3 (from UniProt E1BSI0 1-526) (enzyme)
percent of nucleosomes with a co-locating gold particle [1]: 85%

intact 601.2 mononucleosome
binding signal (% of nucleosomes with gold particle) [2]: 30

nicked 601.2 mononucleosome
binding signal (% of nucleosomes with gold particle) ([2]; single nick at nucleotide 45 (Nt.BsmAI)): 85

B1: 19-bp duplex with 5'-phosphorylated nick (Gap0 NMR) (dsDNA)
DNA 1: GCACAGCCGTGAGCGATGC
DNA 2: GCATCGCTCA
DNA 3: CGGCTGTGC
modifications: 5'-phosphate on S43
binding result (cPARP3 NTD-WGR (1-169) [3]): binds

B2: 10-nt 3'-overhang duplex with recessed 5'-phosphate (dsDNA)
DNA 1: GCACAGCCGTGAGCGATGC
DNA 2: CGGCTGTGC
modifications: 5'-phosphate on S43
binding result (cPARP3 NTD-WGR (1-169) [4]): binds
